Laboratory results published in PMC8504119.

Target: tetrameric biotin non-binding streptavidin 'Dead' (SA-4D) (UniProt P22629)
Assay: SDS-PAGE without boiling; refolded, purified SA-A and SA-D; samples not subjected to thermal denaturation keep the tetramer

tetrameric biotin non-binding streptavidin 'Dead' (SA-4D) (from UniProt P22629 25-183) (natural protein)
stoichiometry N: 4
